Measured values taken from patent publication US9526791B2, “Weakly acidic pH-responsive peptide and liposome containing same” (Taiho Pharmaceutical Co., Ltd., priority 2012, dated 2016).
Like-named read-outs stand apart in the source and are kept apart here.

How the values were obtained:
[1] = assay type: physicochemical; settings: for Leakage of calcein (in words): pH 6.5 (pH changed from 7.4 to 6.5); for Calcein leakage rate (%): calcein-encapsulated liposome, 37° C., 10 minutes
Protocol: • (1) After a peptide-containing lipid membrane was prepared as in Example 4, a calcein (Mw: 622.55) 30-mM solution was added, and calcein-encapsulated liposome 1 was prepared as in Example 4. Unencapsulated calcein was removed by gel filtration (Sephadex G50).
To measure the leakage of the encapsulated calcein from the liposomes, the liposomes were diluted and suspended in buffers having different pHs, and then incubated at 37° C. for 10 minutes. The fluorescence (λex: 488 nm, λem: 517 nm) of the leaked calcein was measured by a plate reader (Infinite M200, produced by Tecan). The fluorescence of the leaked calcein when the liposomes were mixed with 1% Triton-X100 was regarded as complete leakage. The leakage rate was calculated by the following formula. […] Leakage rate(%)=(Fsample−FpH 7.4)/(Ftriton−FpH 7.4)×100
Fsample Fluorescence of calcein leaked from the liposomes at each pH
FpH 7.4: Fluorescence of calcein leaked from the liposomes at a pH of 7.4
Ftriton: Fluorescence of calcein when the liposomes were mixed with 1% Triton-X100.
Calcein was encapsulated in liposome 1 obtained in Example 4, and liposomes 2 and 3 obtained in Example 5, and pH responsiveness was examined as in Test Example 1.
The calcein leakage rate of the calcein-encapsulated liposomes obtained in Examples 4, 6, and 7, and Comparative Examples 4 to 6 at a pH of 7.4 and a pH of 6.5 was calculated as in Test Example 1.

[2] = Observation of liposomes into which comparative compound 3 was introduced (aggregation); assay type: physicochemical; settings: pH 6.5 or less
Protocol: Comparative liposome 3 into which comparative compound 3 obtained in Comparative Example 3 had been introduced was produced according to the method described in Example 4, and calcein-encapsulated comparative liposome 3 was prepared by the same production method as in Test Example 1.
Thus, the pH-responsiveness was insufficient.

[3] = CD spectra of peptide alone or peptide-introduced liposome under different pH conditions; assay type: physicochemical; settings: PBS (−), peptide concentration 20 μM
Protocol: Peptide compound 1 obtained in Example 1 alone and a peptide-introduced liposome obtained according to Example 4 (each having a peptide concentration of 20 μM) were suspended in PBS (−) with different pHs, and CD (circular dichroism) spectra were recorded on a J-720WI spectropolarimeter (produced by JASCO Corporation).
The “α-helix” represents an α-helix structure, and the “random coil structure” represents a state in which a clear secondary structure is not formed.

Row | Sequence | Leakage of calcein (in words) [1] | Calcein leakage rate (%) ([1]; pH 6.5) | Calcein leakage rate (%) ([1]; pH 7.4) | Aggregation of liposomes [2] | Calcein fluorescence on attempted encapsulation (liposome stability) ([1]; pH 7.4) | Secondary structure from CD spectrum ([3]; as the pH was reduced) | Secondary structure from CD spectrum ([3]; pH 7.4)
1 | HHGGLLLLHHHAAAAALLLAAAAA [compound 1] | remarkably reduced | 30 | 0 |  |  |  | 
2 | GHHGLALLHALHLAAAALHAAALA [Peptide compound 2] |  | 90 | 0 |  |  |  | 
3 | EGEGLALLAHALLAHAALAHAALA [Peptide compound 3] |  | 65 | 0 |  |  |  | 
4 | HGHGLALLAHALLAHAAAAL [compound 3] |  |  |  | remarkably aggregated | fluorescence intensity at the same level as that when Triton treatment was performed |  | 
5 | HGHGGGGGGGGGAHALLAHAALAH [compound 2] | remarkably reduced | 30 | 0 |  |  |  | 
6 | HGHGLALLAHALLAHAALAHAALA [Peptide compound 1] |  | 100 | 0 |  |  | sequentially converted into a random coil structure | α-helix
